In the test the target is SUN2 (human (endogenous in HUVECs)) (UniProt Q9UH99). Put plainly: proximity ligation; Duolink in situ PLA on fixed, saponin-permeabilised HUVECs with primary antibodies against SUN2 and Nesprin1; cells exposed to PS (12 ± 4 dynes/cm^2) or OS (0.5 ± 4 dynes/cm^2) for 6 h.
Chain of UniProt Q9UH99 (Q9UH99 whole entry): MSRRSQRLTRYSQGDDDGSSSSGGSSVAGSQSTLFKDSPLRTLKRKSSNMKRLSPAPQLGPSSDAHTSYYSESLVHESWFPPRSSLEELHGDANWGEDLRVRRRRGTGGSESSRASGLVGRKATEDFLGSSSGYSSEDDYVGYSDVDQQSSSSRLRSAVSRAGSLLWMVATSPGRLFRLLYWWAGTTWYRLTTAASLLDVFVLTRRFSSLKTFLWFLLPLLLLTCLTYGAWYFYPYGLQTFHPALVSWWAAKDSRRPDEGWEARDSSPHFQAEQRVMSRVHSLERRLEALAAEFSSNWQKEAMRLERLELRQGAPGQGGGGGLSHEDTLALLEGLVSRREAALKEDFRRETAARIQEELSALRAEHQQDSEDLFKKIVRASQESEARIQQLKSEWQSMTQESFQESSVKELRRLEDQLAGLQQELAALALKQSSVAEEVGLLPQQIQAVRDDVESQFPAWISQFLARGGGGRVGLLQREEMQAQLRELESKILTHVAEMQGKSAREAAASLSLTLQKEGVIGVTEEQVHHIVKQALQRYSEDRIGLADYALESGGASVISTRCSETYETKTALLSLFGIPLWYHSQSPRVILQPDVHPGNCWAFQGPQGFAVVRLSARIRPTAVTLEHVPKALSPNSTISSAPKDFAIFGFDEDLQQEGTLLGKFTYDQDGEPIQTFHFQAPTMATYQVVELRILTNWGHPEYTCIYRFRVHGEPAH

On to Nesprin1, Q8NF91 1-8797, for which the PLA punctuated signals per cell (cells exposed to OS) is 2 per cell and the PLA punctuated signals per cell (cells exposed to PS) was 7 per cell.

These data come from article PMC7330101.
